From US20240400671A1 (LANIER BIOTHERAPEUTICS, published 2024)

T1: recombinant human IL-25 (R&D Systems) (human, UniProt Q9H293 33-177)
T1 sequence (looked up): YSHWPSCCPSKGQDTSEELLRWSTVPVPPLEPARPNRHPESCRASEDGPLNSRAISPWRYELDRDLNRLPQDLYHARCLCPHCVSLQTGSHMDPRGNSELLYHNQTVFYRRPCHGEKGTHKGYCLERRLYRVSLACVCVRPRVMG


Target: T1, recombinant human IL-25 (R&D Systems)
Experiment: cell-based or functional assay

| Binder | IC50 [µg/mL] |
| --- | --- |
| ABM125 (Chimera) (antibody, V domains shown, N-glycosylation site in heavy chain CDR1 created by S29N, confirmed biophysically) VH: QVTLKVSGPGILQPSQTLSLTCSFSGFSLNTSGMGVGWIRQPSGKGLEWLAHIWWDDVKRYNPALKSRLTISKDTSGSQVFLKIASVDTADTATYYCARTLPHFFDYWGQGTTLTVSS VL: DIQMTQSPAIMSASPGEKVTISCRASSSVSYMYWYQQKSGSSPKPWIYRTSNLASGVPARFSGSGSGTSYSLTISSMEAEDAATYYCKQYHSYPPTWTFGGGTKLEIKR | 0.18 |
| hABM125.34 (antibody, V domains shown) VH: QVTLKESGPTLVKPTQTLTLTCTFSGFSLSTSGMGVGWIRQPPGKALEWLAHIWWDDVKRYNPSLKSRLTITKDTSGSQVVLTMTNMDPVDTATYYCARTLPHFHDYWGQGTTLTVSS VL: DIQMTQSPSTLSASVGDRVTITCRASSSVSYMYWYQQKPGKAPKPLIYRTSNLASGVPSRFSGSGSGTEYTLTISSLQPDDFATYYCKQYHSYPPTWTFGGGTKLEIKR | 0.22 |
